{"source": "patent US7105305", "target": "type B human PDGF receptor (B-hPDGF-R) on transfected CHO cells (CHO-HR5) (human) (UniProt P09619)", "sequence (P09619 33-1106 E241D)": "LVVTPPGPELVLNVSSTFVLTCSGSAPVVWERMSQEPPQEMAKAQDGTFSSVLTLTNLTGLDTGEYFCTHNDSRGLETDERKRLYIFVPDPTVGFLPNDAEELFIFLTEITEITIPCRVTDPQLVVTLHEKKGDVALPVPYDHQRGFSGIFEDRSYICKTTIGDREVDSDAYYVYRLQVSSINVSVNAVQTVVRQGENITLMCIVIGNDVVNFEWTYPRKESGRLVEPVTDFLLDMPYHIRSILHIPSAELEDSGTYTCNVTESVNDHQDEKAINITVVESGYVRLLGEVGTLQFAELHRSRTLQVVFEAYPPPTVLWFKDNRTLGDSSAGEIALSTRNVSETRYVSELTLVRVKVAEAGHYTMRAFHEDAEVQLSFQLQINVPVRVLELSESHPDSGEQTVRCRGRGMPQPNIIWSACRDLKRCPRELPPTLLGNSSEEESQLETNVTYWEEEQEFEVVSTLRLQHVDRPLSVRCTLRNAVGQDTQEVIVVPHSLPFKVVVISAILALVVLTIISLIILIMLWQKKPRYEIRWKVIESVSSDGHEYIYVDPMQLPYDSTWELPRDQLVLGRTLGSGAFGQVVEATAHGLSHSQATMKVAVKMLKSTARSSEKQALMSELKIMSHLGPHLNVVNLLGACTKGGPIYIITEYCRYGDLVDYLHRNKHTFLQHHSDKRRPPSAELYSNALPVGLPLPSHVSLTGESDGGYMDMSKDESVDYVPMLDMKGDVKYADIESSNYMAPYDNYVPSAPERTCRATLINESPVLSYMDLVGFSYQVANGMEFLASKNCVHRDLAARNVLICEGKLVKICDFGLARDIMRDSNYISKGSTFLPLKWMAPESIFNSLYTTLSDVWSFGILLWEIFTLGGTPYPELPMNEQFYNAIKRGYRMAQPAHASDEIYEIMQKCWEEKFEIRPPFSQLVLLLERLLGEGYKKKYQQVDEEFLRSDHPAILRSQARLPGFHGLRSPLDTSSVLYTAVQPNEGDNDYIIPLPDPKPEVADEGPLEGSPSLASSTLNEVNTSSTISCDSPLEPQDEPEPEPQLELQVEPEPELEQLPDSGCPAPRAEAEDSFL", "assay": "whole-cell 125I-PDGF binding, 37 C for 45 min, Ficoll gradient; non-specific binding taken from CHO cells", "data": [{"substance": "^125I-labeled PDGF (ligand)", "values": [{"measurement": "non-specific binding as percent of the bound radioactivity", "result": 25, "unit": "percent"}]}]}
